*: point of attachment. Biotin = O=C1N[C@H]2[C@H](CS[C@H]2CCCCC(=O)*)N1
Target: imiglucerase/Cerezyme (recombinant GCase, Sanofi Genzyme), P04062
Sequence (P04062 40-536): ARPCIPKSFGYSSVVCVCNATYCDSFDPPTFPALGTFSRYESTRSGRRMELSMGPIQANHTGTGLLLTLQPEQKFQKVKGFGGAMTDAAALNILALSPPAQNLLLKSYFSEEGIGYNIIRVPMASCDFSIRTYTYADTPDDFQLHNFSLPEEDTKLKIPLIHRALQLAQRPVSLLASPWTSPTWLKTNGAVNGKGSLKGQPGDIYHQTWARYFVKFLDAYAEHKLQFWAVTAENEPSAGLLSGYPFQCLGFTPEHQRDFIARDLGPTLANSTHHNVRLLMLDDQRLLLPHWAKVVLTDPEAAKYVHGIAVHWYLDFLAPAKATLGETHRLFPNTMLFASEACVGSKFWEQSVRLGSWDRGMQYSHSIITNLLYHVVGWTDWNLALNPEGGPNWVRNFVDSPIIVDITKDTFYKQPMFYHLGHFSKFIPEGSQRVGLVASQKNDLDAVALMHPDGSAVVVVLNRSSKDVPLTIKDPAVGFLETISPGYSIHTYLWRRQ

other: 2.63 fold
B1: L2H5‐wt peptide (LIMP‐2‐derived helix 5 peptide) (peptide)
peptide: Biotin-KFERQGSGSQVHFLREIIEAMLKAYQSGSGYGRKKRRQRRR-NH2
